Data as given in paper PMC6838198, “Insights into the assembly and architecture of a Staufen-mediated mRNA decay (SMD)-competent mRNP” (Nature Communications, 2019).

T1: GST-UPF1CH (human, UniProt Q92900-2 115-272)
T1 construct: human UPF1, N-terminal cysteine-histidine-rich (CH) domain; also called UPF1CH domain; source: E. coli BL21 (DE3) STAR pRARE, purified (Ni-NTA, heparin, SEC)
T1 sequence (looked up): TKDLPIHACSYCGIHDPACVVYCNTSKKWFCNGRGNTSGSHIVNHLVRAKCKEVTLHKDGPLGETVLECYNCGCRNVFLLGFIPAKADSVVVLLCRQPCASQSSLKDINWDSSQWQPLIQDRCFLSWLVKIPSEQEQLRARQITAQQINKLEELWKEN


Columns and labels:
[1] = biological target: Stau1 dsRBD2-3-4-dd (human); assay: SEC-MALS; about 350 µg of each Stau1 construct on Superdex 200 10/300; 20 mM HEPES pH 7.5, 150 mM NaCl, 0.02% NaN3; dimer to monomers
[2] = biological target: T1, GST-UPF1CH; assay: pull-down; GST-tagged bait and prey mixed in equal amounts, 4 °C 16 h, Glutathione Sepharose; 20 mM HEPES pH 7.5, 150 mM NaCl, 10% glycerol, 0.1% NP-40; eluted with 20 mM glutathione, SDS-PAGE and Coomassie; bands quantified with ImageJ; conditions: both partners purified
[3] = biological target: T1, GST-UPF1CH; assay: pull-down; as the GST pull-down, with UPF2 added as a third purified protein; conditions: both partners purified
[4] = biological target: GST-UPF1 (CH domain and helicase core) (human) (UniProt Q92900); assay: as above
[5] = biological target: the molecule itself; assay: SEC; analytical SEC of full-length Stau1 alone; monomer and dimer peaks

Molecule	stoichiometry N [1]	fold lower amount bound than UPF2s [2]	fold increase of co-precipitated Stau1 on addition of UPF2 [3]	fold increase of co-precipitated Stau1 on addition of UPF2 [4]	stoichiometry N [5]
Stau1 dsRBD2-3-4-dd (domain or fragment)	2	–	–	–	–
Stau1, full length (Stau1_63, the longer isoform, 577 residues) (natural protein, human, UniProt O95793 1-577, looked up, human Stau1, longer isoform Stau1_63, 577 residues; In rapid equilibrium between monomer and dimer in solution; source: E. coli BL21 (DE3) STAR pRARE, purified (Ni-NTA, heparin, SEC)) MSQVQVQVQNPSAALSGSQILNKNQSLLSQPLMSIPSTTSSLPSENAGRPIQNSALPSASITSTSAAAESITPTVELNALCMKLGKKPMYKPVDPYSRMQSTYNYNMRGGAYPPRYFYPFPVPPLLYQVELSVGGQQFNGKGKTRQAAKHDAAAKALRILQNEPLPERLEVNGRESEEENLNKSEISQVFEIALKRNLPVNFEVARESGPPHMKNFVTKVSVGEFVGEGEGKSKKISKKNAAIAVLEELKKLPPLPAVERVKPRIKKKTKPIVKPQTSPEYGQGINPISRLAQIQQAKKEKEPEYTLLTERGLPRRREFVMQVKVGNHTAEGTGTNKKVAKRNAAENMLEILGFKVPQAQPTKPALKSEEKTPIKKPGDGRKVTFFEPGSGDENGTSNKEDEFRMPYLSHQQLPAGILPMVPEVAQAVGVSQGHHTKDFTRAAPNPAKATVTAMIARELLYGGTSPTAETILKNNISSGHVPHGPLTRPSEQLDYLSRVQGFQVEYKDFPKNNKNEFVSLINCSSQPPLISHGIGKDVESCHDMAALNILKLLSELDQQSTEMPRTGNGPMSVCGRC	–	3.3 fold	2.3 fold	3.3 fold	2
